Results published in patent US20170296650A1 (Novartis, published 2017).

B1: 2B11 (antibody, V domains shown)
VH: AVRLVESGGGLAQPGRSLRLSCQVSGFTFGSYEMNWVRQAPGKGLEWIAYIDFTGSTIYYADSVKGRFTISRNTARNSLYLQMNSLRVEDTAVYYCVRDAGRWGTSWYYFDYWGQGTRVTVSP
VL: QSVLTQPPSVSGAPGQRVTISCTGISSNIGAGYDIHWYQQIPGKAPKLLVYGNNNRPSGVPDRFSGSKSGTSVSLAITGLQVEDEADYYCQSYDNSLNGWVFGGGTRLTVL
notes: human IgG; also called 2B11-biotin
B2: 8J16 (antibody, V domains shown)
VH: QVQLQESGPGLVKPSETLSLTCSVSGGFTSSYYWSWIRQAPGKGLEWIGYVYYGESTDYNPSLKSRATISIDTSKNQFSLKLSSVTAADTAVYYCAREVDKRGFDYWGQGALVTVSS
VL: EIVLTQSPGTLSLSPGERATLSCRASQSVSGGYLAWYQQEPGQAPRLVIYGASSRATGIPDRFSASGSGTDFTLTITRLEPEDFAVYYCQQYGRTPLTFGGGTKVEIK
notes: human IgG; also called 8J16-biotin
B3: 7I13 (antibody, V domains shown)
VH: QVQLVESGGGVVQPGRSLRLSCAASGFTFSNYGMHWVRQGPGKGLEWVAVISYDASSKYYTDSVQGRFTISRDNSKNTLFLQMNSLRGEDTAVYYCAKALRYLDWFLSDPFDYWGQGTLVTVSS
VL: EIVLTQSPGTLSLSPGERATLSCRASQSVSSDFLAWYQQKPGQAPRLLIYGASSRATGIPDRFSGSGSGTDFTLTISRLEPEDFAVYYCQQYAASPPFGQGTRLEIK
notes: human IgG; also called 7113
B4: 8C15 (antibody, V domains shown)
VH: QVQLQESGPGLVKPSETLSLTCTVSGGSIRSYYWSWIRQPPGKGLEWIGHIYYSGNTNYSPSLQSRVTISLDTPKNQFSLRLSSVTAADTAVYYCARHDVIVVRGVFDVWGQGTVVTVSS
VL: QSALTQPASVSGSPGQSITISCTGTSSDIGTYNLVSWYQQHPGKAPKVLIYDGSKRPSGVSSRFSASKSGNTASLTISGLQAEDETDYYCCSYAGTSDFFVVFGGGTKLTVL
notes: human IgG; also called 8C15-biotin
B5: 9I6 (antibody, V domains shown)
VH: EVQLVQSGAEVKKPGESLKISCRESGDTFPAYWIAWVRQMPGKGLEWMGIIYPIDSETTYSPSFQGQVTISADKSINTAYLQWSSLKASDSAIYYCARGTSTGLREAFHIWGQGTMVTVSS
VL: DVVMTQSPLSLAVTLGQPAYISCRSSQSLGYSDGNTYLNWFQQRPGQSPRRLIYEVSNRDSGVPDRFSGSGSGTDFTLKISRVEAEDVGTYYCMQGTHWPPMCSFGQGTKLEIK
notes: human IgG; also called 9I6-biotin; 916
B6: 2C12 (antibody, V domains shown)
VH: QITLRESGPTLVKPTQTLTLTCTFSGFSLNTNGVGVGWIRQPPGKALEWLALIYWNGNEGYSPSLKSRLTITKDTSKNQVVLTMTNMDPVDTATYYCVHWPQGLTTVTRLAFDIWGQGTMVTVSS
VL: QSALTQPRSVSGSPGQSVTISCTGTTSDVGRYNFVSWYQQHPGKAPKLLMYDVSQRPSGVPSRFSGSKSGNTASLTISGLQAEDEAVFYCCSYAGGNFFSYVFGTGTKVTVL
notes: human IgG; also called 2C12-biotin

How the values were obtained:
[1] = target: T1, hCMV glycoprotein B (gB; HEK293T transfectant) (hCMV, UniProt P06473 32-906); test: cell competition; competitor 5F1-biotin
T1 construct: whole, on cells; in the functional rows it stands for gB on virions or transduced cells of the strain or isolate named in the readout
T1 sequence (P06473 32-906 limits assumed): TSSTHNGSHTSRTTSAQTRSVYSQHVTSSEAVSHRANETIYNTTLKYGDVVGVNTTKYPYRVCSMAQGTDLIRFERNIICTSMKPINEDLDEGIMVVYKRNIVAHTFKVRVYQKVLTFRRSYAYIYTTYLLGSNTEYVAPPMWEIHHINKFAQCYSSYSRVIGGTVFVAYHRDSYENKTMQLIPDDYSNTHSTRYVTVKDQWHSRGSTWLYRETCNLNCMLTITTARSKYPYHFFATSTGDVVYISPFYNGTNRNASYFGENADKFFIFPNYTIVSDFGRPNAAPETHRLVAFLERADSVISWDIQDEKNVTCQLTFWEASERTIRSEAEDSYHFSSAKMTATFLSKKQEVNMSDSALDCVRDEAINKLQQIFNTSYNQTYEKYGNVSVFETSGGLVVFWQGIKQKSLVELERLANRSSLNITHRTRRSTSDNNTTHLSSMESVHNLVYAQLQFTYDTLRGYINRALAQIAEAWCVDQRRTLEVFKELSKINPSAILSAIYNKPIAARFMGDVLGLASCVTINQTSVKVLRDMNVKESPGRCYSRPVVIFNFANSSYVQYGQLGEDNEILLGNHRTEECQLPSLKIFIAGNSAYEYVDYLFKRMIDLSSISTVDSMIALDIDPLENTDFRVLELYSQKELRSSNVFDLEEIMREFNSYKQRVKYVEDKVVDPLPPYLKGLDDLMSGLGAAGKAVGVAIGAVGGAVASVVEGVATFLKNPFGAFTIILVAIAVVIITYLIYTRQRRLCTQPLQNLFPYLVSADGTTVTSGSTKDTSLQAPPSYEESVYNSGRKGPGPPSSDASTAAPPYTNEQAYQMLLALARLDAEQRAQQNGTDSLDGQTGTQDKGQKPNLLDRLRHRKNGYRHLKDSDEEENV

[2] = target: T1, hCMV glycoprotein B (gB; HEK293T …); test: cell competition; competitor 6B4-biotin
[3] = target: T1, hCMV glycoprotein B (gB; HEK293T …); test: cell competition; competitor 2B11-biotin
[4] = target: T1, hCMV glycoprotein B (gB; HEK293T …); test: cell competition; competitor 4H9-biotin
[5] = target: T1, hCMV glycoprotein B (gB; HEK293T …); test: cell competition; competitor 10C6-biotin
[6] = target: T1, hCMV glycoprotein B (gB; HEK293T …); test: cell-based or functional assay
[7] = target: T1, hCMV glycoprotein B (gB; HEK293T …); test: cell competition; competitor 7H3-biotin
[8] = target: T2, hCMV gH + gL + UL128 + UL130 + UL131A (5-member complex; HEK293T co-transfectant) (hCMV, UniProt P12824 24-743; P16832 31-278; P16837 1-171; P16772 1-214); test: cell competition; competitor 1F11-biotin
T2 construct: whole, on cells; in the functional rows it stands for the complex on virions or transduced cells of the strain or isolate named in the readout; also called gH/gL/UL128-131A complex; pentameric complex

[9] = target: T2, hCMV gH + gL + UL128 + UL130 + UL131A …; test: cell competition; competitor 8J16-biotin
[10] = target: T2, hCMV gH + gL + UL128 + UL130 + UL131A …; test: cell competition; competitor 9I6-biotin
[11] = target: T2, hCMV gH + gL + UL128 + UL130 + UL131A …; test: cell competition; competitor 8I21-biotin
[12] = target: T2, hCMV gH + gL + UL128 + UL130 + UL131A …; test: cell competition; competitor 6G4-biotin
[13] = target: T3, hCMV UL128 + UL130 + UL131A (HEK293T co-transfectant) (hCMV, UniProt P16837 1-171; P16772 1-214); test: cell-based or functional assay
T3 sequence (P16837 whole entry, chain 1 of 2): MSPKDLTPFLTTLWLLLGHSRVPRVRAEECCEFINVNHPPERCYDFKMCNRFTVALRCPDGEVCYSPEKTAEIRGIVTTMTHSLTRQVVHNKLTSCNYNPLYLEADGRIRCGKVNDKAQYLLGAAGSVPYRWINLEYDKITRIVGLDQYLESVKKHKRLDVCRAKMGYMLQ
T3 sequence (P16772 whole entry, chain 2 of 2): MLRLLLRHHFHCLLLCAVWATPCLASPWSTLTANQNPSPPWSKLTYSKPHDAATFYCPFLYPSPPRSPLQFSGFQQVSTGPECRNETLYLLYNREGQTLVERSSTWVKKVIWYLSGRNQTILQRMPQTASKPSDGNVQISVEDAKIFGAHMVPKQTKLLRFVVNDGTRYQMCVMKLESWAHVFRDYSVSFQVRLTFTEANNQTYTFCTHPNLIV

[14] = target: T2, hCMV gH + gL + UL128 + UL130 + UL131A …; test: cell competition; competitor 2C12-biotin
[15] = target: T2, hCMV gH + gL + UL128 + UL130 + UL131A …; test: cell competition; competitor 2F4-biotin
[16] = target: T2, hCMV gH + gL + UL128 + UL130 + UL131A …; test: cell competition; competitor 8C15-biotin
[17] = target: T2, hCMV gH + gL + UL128 + UL130 + UL131A …; test: cell competition; competitor 4I22-biotin
[18] = target: T3, hCMV UL128 + UL130 + UL131A (HEK293T …); test: cell-based or functional assay; remark: listed apart in the source
[19] = target: T2, hCMV gH + gL + UL128 + UL130 + UL131A …; test: cell competition; competitor 5A2-biotin
[20] = target: T2, hCMV gH + gL + UL128 + UL130 + UL131A …; test: cell competition; competitor 10F7-biotin
[21] = target: T2, hCMV gH + gL + UL128 + UL130 + UL131A …; test: cell competition; competitor 15D8-biotin
[22] = target: T2, hCMV gH + gL + UL128 + UL130 + UL131A …; test: cell competition; competitor 4N10-biotin

| Binder | Inhibition of binding (%) [8] | Inhibition of binding (%) [9] | Inhibition of binding (%) [10] | Inhibition of binding (%) [11] | Inhibition of binding (%) [12] | 50% neutralization VR1814, ARPE [13] | 50% neutralization VR1814, MRC-9 [13] | Inhibition of binding (%) [14] | Inhibition of binding (%) [15] | Inhibition of binding (%) [16] | Inhibition of binding (%) [17] | 90% neutralization VR1814, ARPE [18] | 90% neutralization VR1814, MRC-9 [18] | further results |
| --- | --- | --- | --- | --- | --- | --- | --- | --- | --- | --- | --- | --- | --- | --- |
| B1 | – | – | – | – | – | – | – | – | – | – | – | – | – | Inhibition of binding (%) [1]: 100%; Inhibition of binding (%) [2]: 0%; Inhibition of binding (%) [3]: 100%; Inhibition of binding (%) [4]: 100%; Inhibition of binding (%) [5]: 100%; 90% neutralization VR1814, ARPE [6]: 0.2 µg/mL; 90% neutralization VR1814, MRC-9 [6]: 0.75 µg/mL; Inhibition of binding (%) [7]: 0% |
| B2 | 0% | 100% | 70% | 0% | 100% | < 0.001 µg/mL | > 2 µg/mL | 100% | 0% | 100% | 0% | 0.0008 µg/mL | > 10 µg/mL | – |
| B3 | 0% | 0% | 0% | 0% | 0% | < 0.01 µg/mL | > 2 µg/mL | 0% | – | 0% | – | 0.008 µg/mL | > 10 µg/mL | – |
| B4 | – | 100% | 100% | 0% | 100% | < 0.001 µg/mL | > 2 µg/mL | 100% | – | 100% | 0% | 0.0025 µg/mL | > 10 µg/mL | – |
| B5 | 0% | 100% | 100% | 0% | 100% | < 0.001 µg/mL | > 2 µg/mL | 100% | 0% | 100% | 0% | 0.0007 µg/mL | > 10 µg/mL | – |
| B6 | 0% | 100% | 100% | 0% | 100% | < 0.01 µg/mL | ≤ 2 µg/mL | 100% | 0% | 100% | 0% | 0.006 µg/mL | > 10 µg/mL | Inhibition of binding (%) [19]: 0%; Inhibition of binding (%) [20]: 0%; Inhibition of binding (%) [21]: 0%; Inhibition of binding (%) [22]: 0% |
